The values that follow come from paper PMC3673817.

The test addresses FLAG-tagged full length EEA1 (Early endosomal autoantigen 1) (human) (UniProt Q15075). Put plainly: SPR; EEA1-FLAG amine-coupled to a CM5 chip (~2,000 RU), Biacore 2000, 25°C; E2 injected at 2.5 to 160 μM, 20 μL/min, in 10 mM Hepes pH 7.4, 150 mM NaCl, 3 mM EDTA, 0.005% surfactant P20; response plotted against the E2 concentration. In general terms: Surface plasmon resonance follows binding to a sensor surface in real time, without labels.
UniProt Q15075, sequence (Q15075 whole entry): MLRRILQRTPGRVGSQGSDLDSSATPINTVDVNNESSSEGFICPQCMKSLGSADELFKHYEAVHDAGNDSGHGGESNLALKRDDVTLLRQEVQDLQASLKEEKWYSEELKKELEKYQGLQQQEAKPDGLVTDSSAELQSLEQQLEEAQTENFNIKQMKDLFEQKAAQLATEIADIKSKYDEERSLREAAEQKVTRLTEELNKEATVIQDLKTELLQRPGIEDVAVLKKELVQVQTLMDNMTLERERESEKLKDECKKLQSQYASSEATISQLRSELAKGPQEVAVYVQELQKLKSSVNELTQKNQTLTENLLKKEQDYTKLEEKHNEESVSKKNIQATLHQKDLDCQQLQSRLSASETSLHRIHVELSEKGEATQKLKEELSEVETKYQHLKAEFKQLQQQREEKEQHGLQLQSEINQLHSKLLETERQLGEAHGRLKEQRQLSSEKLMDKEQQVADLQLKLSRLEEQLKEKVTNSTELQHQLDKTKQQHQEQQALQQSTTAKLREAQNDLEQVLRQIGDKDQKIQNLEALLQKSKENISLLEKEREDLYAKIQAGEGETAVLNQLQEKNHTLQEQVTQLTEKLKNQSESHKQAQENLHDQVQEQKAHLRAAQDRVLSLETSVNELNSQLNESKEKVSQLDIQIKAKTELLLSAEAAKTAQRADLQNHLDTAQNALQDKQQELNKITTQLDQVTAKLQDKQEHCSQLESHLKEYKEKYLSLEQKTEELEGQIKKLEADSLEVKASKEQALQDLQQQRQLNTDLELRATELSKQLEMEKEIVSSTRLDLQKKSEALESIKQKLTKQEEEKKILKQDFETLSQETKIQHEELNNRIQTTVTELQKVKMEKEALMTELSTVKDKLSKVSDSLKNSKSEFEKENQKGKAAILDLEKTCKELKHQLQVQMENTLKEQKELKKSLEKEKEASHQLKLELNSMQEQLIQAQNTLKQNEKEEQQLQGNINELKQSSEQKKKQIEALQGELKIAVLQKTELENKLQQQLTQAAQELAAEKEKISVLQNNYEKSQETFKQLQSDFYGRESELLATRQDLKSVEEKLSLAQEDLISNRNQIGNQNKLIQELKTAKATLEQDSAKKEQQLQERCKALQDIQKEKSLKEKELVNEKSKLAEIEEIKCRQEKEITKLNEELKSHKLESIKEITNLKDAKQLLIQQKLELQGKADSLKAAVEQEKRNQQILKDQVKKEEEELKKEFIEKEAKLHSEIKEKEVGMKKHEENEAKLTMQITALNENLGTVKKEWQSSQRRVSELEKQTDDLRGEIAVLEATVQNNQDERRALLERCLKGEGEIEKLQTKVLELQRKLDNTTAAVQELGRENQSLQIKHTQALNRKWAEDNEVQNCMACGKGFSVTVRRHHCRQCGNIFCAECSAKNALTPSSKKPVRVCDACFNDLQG

pKd: −log10 of the molar value.

As usually defined, the pKd is the Kd on a negative log10 scale, so that one unit is a factor of ten. With “Ube2A (HR6a) (from UniProt P49459 1-152) (enzyme; other documents disagree on this pair)”, the pKd is 5.01.
